In the supplement of paper PMC9170038:

System: K4 kissing-loop RNA reporter
Assay: apparent KD of K4 kissing-loop reporter; higher = weaker reporter binding
Conditions: Eterna round: R107
Experimental: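 RNA-MaP round R107: designed RNA switches with theophylline, tryptophan, arginine or FMN aptamers are transcribed on-chip within common flanks. They are titrated with a labelled K4 kissing-loop RNA reporter in RNA-MaP buffer (100 mM Tris pH 7.5, 80 mM KCl, 4 mM MgCl2), without ligand or with the indicated ligand. Median apparent KD per design.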

[1] = input ligand: theophylline 20 uM
[2] = input ligand: tryptophan 2.4 mM
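Also: bound reporter read as fluorescence of individual clusters on recovered sequencing chips by microscopy, with normalized cluster intensities fitted with a binding model.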

Row | Sequence | apparent KD of K4 kissing-loop reporter (input ligand: FMN 200 uM) | apparent KD of K4 kissing-loop reporter (input ligand: arginine 13.2 mM) | apparent KD of K4 kissing-loop reporter (input ligand: none) | apparent KD of K4 kissing-loop reporter [1] | apparent KD of K4 kissing-loop reporter [2]
1 | CCUUCCCUUGAUAGUGAUGUUAUCAAGGACAAGGAUAUCAUCUCAAUGAGAAGGUGUCCUUGAUAACAUGGAGGUCUGAAACAGA [Omei KL FMN A Exc C v2] | 279 nM | 125 nM | 132 nM | 128 nM | 139 nM
2 | CGGAUGUAGUGAUGUUAUAUAAGAAGUAGACGAGGACCGGUACGGCCGCCACUCGAAACGGCUACUAGCGCGUUGCGAGGUGUGC [ExTryptoA.Ch] | 651 nM | 681 nM | 549 nM | 688 nM | 500 nM
3 | AAAUAGCUGACGUUGAGUGGGAGCCAGGCACGAGGACCGGUACGGCCGCCACUCGACUAGGUUUUCAGUGAUGUUGAAAAUUUAA [Exclusion Tryptophan A GF 5] | 239 nM | 249 nM | 206 nM | 224 nM | 194 nM
4 | GUCGGCCGCGCGCAAGCGCGGCCGGCCGAUACCAGCGCGCCGGUGCGCCCUUGGCAGCGGCACCGAGUGAUGUUCGGUCAGACGA [#2 Same State - Theophylline A Attempt #6 (HarryS)] | 407 nM | 161 nM | 308 nM | 113 nM | 234 nM
5 | CGCGACGUGGUCACGCCAGUCUCGUUAACCAAGGAUAUUGAGAAGACAAGAAGGUGGAUGUACCAUAGUGAUGUUGUGGUCAGUA [theeternabot_sameState_KL_FMN_A_17] | 416 nM | 356 nM | 465 nM | 448 nM | 388 nM
6 | AGAAGAGUGAUGUUCUUCUAUAUCUCAGAAGGAGCGACAUUAAUGUCAGGUAGGUCGCUGAGAUGAAAUCUCACACAGAUCUUGG [Arg A SS t8a] | 145 nM | 154 nM | 149 nM | 178 nM | 125 nM
7 | GGGCUGGUGCUAGGAUAUGCGAUGAAUGCUCAGGAAACCUUGAGUCCGCAGUGAUGUUGCGGCACCGCAGAAGGAGCUUAGGCUC [Esbequ] | 146 nM | 263 nM | 222 nM | 292 nM | 172 nM
8 | AGAGUUAAUUAGUCAUUUUUCACAUUAAGUCAGGAUAUCGUAUUUUCGAGAAGGGACACAUGCUAGUGAUGUUAGCUAUUUCUCA [JR_Nu_ExcFMNA_Sub021] | 63.6 nM | 93.9 nM | 68.3 nM | 105 nM | 56.9 nM
9 | CAUAUAUACACUAACCCGUACGGUAGUAAGCGAGGACCGGUACGGCCGCCACUCGAUCGUUUCGUGUUAGCACCAGUGAUGUUGG [theeternabot_sameState_KL_Trp_A_3] | 461 nM | 399 nM | 526 nM | 431 nM | 392 nM
10 | UAGGUUUAAUCGGCCGCCACUAUCAGAGCGCCAGUGAUGUUGGAGUAACGAUCGUGGCGAGUUAAUAGGACCGGGAUUCAACACA [Velazaer] | 159 nM | 141 nM | 141 nM | 152 nM | 156 nM
11 | ACGUAUAUCAGAGGAUAUCGUAUUAAUAUUUUAUCUAUAUAUAUAUGCAGUGAUGUUGCUAUAAUUCGAGAAGGCUGAUUUACGA [JR_ExcFMNB_Sub011] | 109 nM | 109 nM | 84 nM | 120 nM | 81.4 nM
12 | GGUGGCUUACAAAGCUCAGUGAUGUUGAGCCGAGGACCGGUACGGCCGCCACUCGUUUGCCAUUCACUACAGUUACAAGCACUAG [theeternabot_exclusion_KL_Trp_A_2] | 269 nM | 217 nM | 279 nM | 282 nM | 292 nM
13 | AUGUGGAGCGACGUUUAGAGAAACCGGGAAGGAGCGCGGAUAACCGCAGGUAGGUCGCCUGGUUGCCAGUGAUGUUGGCGACGUG [Exclusion Arg A GF 25] | 87.4 nM | 222 nM | 144 nM | 96 nM | 138 nM
14 | AAAAUAAAUAGCAGUCAUGGAGUGAUGUUCCGAGGACCGGUACGGCCGCCACUCGACCAUCAUAAGAUGGAAUGGCAAGACUGCA [#SwitchBubble 23 #K4Early] | 330 nM | 265 nM | 358 nM | 418 nM | 208 nM
15 | AAAAUUGCGGUCGAAAGAACUUCUUGCAUACGAGGACCGGUACGGCCGCCACUCGAGUCAAGUGAUGUUUGAUUUUCUAUUAUUA [JR_ExcTryptoA_Sub013] | 135 nM | 170 nM | 160 nM | 205 nM | 153 nM
16 | AAAAUAAAUCAGUGAUGUUGGUAUCUGGAUACCAGCGAUAAUAGUCGCCCUUGGCAGCCAUGGACGUACAAAAUAAGUACGUCCU [MatMod 19 - Jieux - Same State - Theophylline A] | 221 nM | 117 nM | 183 nM | 170 nM | 160 nM
17 | UAUAUAUGAUGUGAUACCAGUGAAAAGCCAGUGAUGUUGGUAGAACUGGUAUAUAAAUAACACCCUUGGCAGCACAAUCACGUAU [whbob_Ex_Theo_B_sa96] | 155 nM | 134 nM | 147 nM | 191 nM | 146 nM
18 | GUUACGCAUGGAAGGAGCGCUCUCCGGCUUAUUAACACAGUGAUGUUGUGAUUUUGCCGAAAGCAGGUAGGUCGCCAUGUGUAAC [Ex Arginine B K4 11] | 487 nM | 363 nM | 451 nM | 447 nM | 451 nM
19 | CCUAUCUGUUACGAUACCAGUCAAUGAUAUUUUAUCAAUGCCCUCACCGAGUGAUGUUCGGACCCUUGGCAGCGUCUGGGAUAGG [tyygpimullin] | 160 nM | 148 nM | 171 nM | 153 nM | 151 nM
20 | AGGCACGAGCAAGGAUAUCGAGUAGAGUGAUGUUCUGCCUGGGUUGGCUCGUAAGGGCCUUCCCAGCGAGAAGGUGCUCGUGCCU [#2 Same State - FMN A Attempt #15 (HarryS)] | 221 nM | 632 nM | 877 nM | 581 nM | 757 nM
21 | GCCGUAGAUGGAAGGAGCGUGGUCUAGAAGCACAAGUGAUGUUUGUGGUAACCUUCUGACCCACAGGUAGGUCGCCAUCUACGGC | 88.4 nM | 78.4 nM | 85.7 nM | 68.1 nM | 82.1 nM
22 | GUAUAUUAGGGAGACCUAAUAUAAAUAGAAGGAGCGUAGGAAACUACAGGUAGGUCGCUAAAUAUACAGUGAUGUUGUAUAAUGG [arg a same] | 183 nM | 147 nM | 172 nM | 195 nM | 141 nM

Row | Sequence | apparent KD of K4 kissing-loop reporter (input ligand: FMN 200 uM) | apparent KD of K4 kissing-loop reporter (input ligand: arginine 13.2 mM) | apparent KD of K4 kissing-loop reporter (input ligand: none) | apparent KD of K4 kissing-loop reporter [1] | apparent KD of K4 kissing-loop reporter [2]
23 | UCCUACGAGGUAACGUGGAUAUCUCGUUGCAAGGAUAUCUGGAAACAGAGAAGGUGCUACAUUAUCGGCAGUGAUGUUGCUGACC | 687 nM | 655 nM | 1010 nM | 759 nM | 529 nM
24 | UUUAAAUAUAGUGAUGUUAUAUAACAAUGACGAGGACCGGUACGGCCGCCACUCGAGAGAGAUAAUGGUCUUACAAAUGUAAGUU [AstrosSSTryA#9] | 567 nM | 646 nM | 793 nM | 822 nM | 481 nM
25 | CGCUGGGCGAGUGAUGUUCGCUCACGUGAUACCAGUGCCAUCCAACACCCUUGGCAGCACGCGGGCAGUGAUGUUGUCCUUAGUG [Exclusion Theophylline A GF8] | 127 nM | 123 nM | 128 nM | 125 nM | 116 nM
26 | GUGCGUAAGUGAUGUUUACGUCAGCUCCGCAAGGAUAUCCUGAUUAGGAGAAGGUGCGGGAACUAAAGACGCUCGUUCUAGCAGG [theeternabot_exclusion_KL_FMN_A_33] | 146 nM | 182 nM | 205 nM | 168 nM | 162 nM
27 | UGGAGUUGACGAAAAGUCAACUCCUGAGAUACCAGUGACGAAGGUCACCCUUGGCAGCUCACUGCUAGUGAUGUUGGAAGAUAAA [whbob_SS_Theo_A_w48] | 1390 nM | 276 nM | 913 nM | 2350 nM | 792 nM
28 | GGUGGCGUUGUUGACAGCUCACCACGAGCCAAGGAUAUAGUUUCUUCUAGAAGGUGGAAUGACAAGUGAUGUUUGUACGACUGCU [theeternabot_exclusion_KL_FMN_A_28] | 254 nM | 233 nM | 254 nM | 294 nM | 185 nM
29 | AAGGUCACCACUACAGUGAUGUUGUGGGAGCAGGAUAUGCAGAAAUGCAGAAGGGCUCGCUCCCGGUGACCGAAUGAAACAUUCA [Omei KL FMN A SS A v5] | 1380 nM | 636 nM | 981 nM | 765 nM | 846 nM
30 | UGGGUGUAGUGAUGUUAUAUAGAGAGUGAUACCAGCUUAGAGAGAAGCCCUUGGCAGCAUAGAAGAGUAUCAUUGGAGGAGGAGG [ExTheophyl.Ay] | 680 nM | 527 nM | 609 nM | 668 nM | 401 nM
31 | GGCGUCAAACCAGAACUAGUGAUGUUGGUUCGAGGACCGGUACGGCCGCCACUCGAUCUCUUGGUCCAUCGCGGAAGGGCAGCGG [theeternabot_exclusion_KL_Trp_A_29] | 511 nM | 369 nM | 532 nM | 414 nM | 622 nM
32 | GCCGUACGCAUGGAUACCAGCUAGACCGAGUGAUGUUCAGGUCUGAAUGCCGGUAAUAAGAGCCCUUGGCAGCCAUGCGUACGGC | 361 nM | 262 nM | 358 nM | 335 nM | 307 nM
33 | GGUAGCAUGGCGGCCGCCACUUUUUUAGAUACCUACACAGAAAGCAGUGAUGUUGCUUGGUGGUAAAGGACCGGGCCAUGCUACC | 149 nM | 131 nM | 136 nM | 137 nM | 105 nM
34 | AAGGGCGGAACUUCCUCGCCGGAUAGAGAUACCAGCCCAGCAAAGGGCCCUUGGCAGCUCACUGACCUCAGUGAUGUUGAGGUUC [Riesrevere] | 345 nM | 241 nM | 301 nM | 216 nM | 296 nM
35 | AGUGACGAGUGAUGUUCGUGAACACUGGAUACCAGCAGUCUUAUCUGCCCUUGGCAGCCAACGGGAACCGAAUGUUAAGACCUGU [theeternabot_exclusion_KL_Theo_A_4] | 132 nM | 114 nM | 129 nM | 149 nM | 121 nM
36 | AUUUAAUUAACUGAUACCAGACUUAAUGUUUUGUAUAUUACUAGUGAUGUUAGUGAUUCUGUCCCUUGGCAGCAGUAUCUACUUA [JR_ExcTheophyB_Sub014] | 140 nM | 152 nM | 152 nM | 153 nM | 117 nM
37 | AGAGUCAGACAAAAGUCUGGCUCAGCCGAAGGAGCGUCCGUAAGGACAGGUAGGUCGCGGCUAUUUGAGUGAUGUUUGGGUUCCU [KL-SSArg-A20] | 281 nM | 144 nM | 231 nM | 233 nM | 212 nM
38 | AGCAAUAUCACGGCCGCCACUGAAUAUUGUUUUUAUAGUUAUAAAUCUUGCCAGUGAUGUUGGUUCAGGACCGGGUGAGUUAAUA [JR_SSTryptoB_Sub003] | 572 nM | 596 nM | 625 nM | 748 nM | 429 nM
39 | CCAUUCUUUUACGAUACCAGUCUAAUAUAUUUAAUCAAAACCCUCGCCGAGUGAUGUUCGGACCCUUGGCAGCGUCUGCGAGAGG [ettyxtkmullin] | 606 nM | 472 nM | 758 nM | 603 nM | 495 nM
40 | AGUUCUUGCCGAAGGAGCGAGGCAGAGUGAUGUUCUGCAAGAGGUCGAAAGACCUCACUGCCUCAGGUAGGUCGCGGCAUGAACA [Omei KL Arginine B Exc A v4] | 801 nM | 509 nM | 930 nM | 602 nM | 1050 nM
41 | UCACAAGUUAACUAGUGAUGUUAGUUAGUACGAGGACCGGUACGGCCGCCACUCGAAAAGUGGUUUUACGGACUUUUGGGCAGGC [theeternabot_sameState_KL_Trp_A_17] | 337 nM | 250 nM | 268 nM | 223 nM | 260 nM
42 | UGCUGGUCAUAGCGUAGUGUGAGCCGCUCACGAGGACCGGUACGGCCGCCACUCGUUACAAAGCAGUGAUGUUGCAAUAGGCUCU [theeternabot_sameState_KL_Trp_A_24] | 332 nM | 407 nM | 339 nM | 417 nM | 156 nM
43 | CUUGAUGUGUCGGCCGCCACUGGUAUAGGCGGACUAUAACGACAUGAGUGAUGUUCAUGUUCGUCUAGGACCGGGACACAUUGUA [Tryp B SS t4] | 112 nM | 97.4 nM | 104 nM | 100 nM | 111 nM
